Test results taken from US10919953 (dated 2021).
Changes are numbered by the printed parent chain. Like-named read-outs stand apart in the source and are kept apart here.

Tests used:
[1] = molecular target: T1, FcgRIIb (human, UniProt P31994); assay: SPR
T1 chain: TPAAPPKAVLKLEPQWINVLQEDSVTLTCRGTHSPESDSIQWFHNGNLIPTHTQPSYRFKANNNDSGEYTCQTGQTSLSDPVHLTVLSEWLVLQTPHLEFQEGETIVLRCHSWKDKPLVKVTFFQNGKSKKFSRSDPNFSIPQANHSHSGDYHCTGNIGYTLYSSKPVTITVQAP

[2] = molecular target: T2, FcgRIa (human, UniProt P12314); assay: SPR
T2 chain: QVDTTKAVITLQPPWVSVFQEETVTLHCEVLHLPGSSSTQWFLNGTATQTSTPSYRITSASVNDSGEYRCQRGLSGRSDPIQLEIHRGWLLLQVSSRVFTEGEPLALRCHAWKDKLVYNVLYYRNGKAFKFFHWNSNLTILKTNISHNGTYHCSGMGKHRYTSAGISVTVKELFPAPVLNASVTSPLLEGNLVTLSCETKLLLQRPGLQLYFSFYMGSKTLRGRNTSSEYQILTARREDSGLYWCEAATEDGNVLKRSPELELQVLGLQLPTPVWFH

[3] = molecular target: T3, FcgRIIaR (human, UniProt P12318); assay: SPR
T3 chain: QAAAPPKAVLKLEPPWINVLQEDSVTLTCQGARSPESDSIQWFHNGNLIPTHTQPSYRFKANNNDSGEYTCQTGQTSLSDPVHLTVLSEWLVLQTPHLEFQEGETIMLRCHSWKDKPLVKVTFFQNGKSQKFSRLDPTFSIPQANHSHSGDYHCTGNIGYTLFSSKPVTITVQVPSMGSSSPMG

[4] = molecular target: T2, FcgRIa; assay: SPR
[5] = molecular target: T3, FcgRIIaR; assay: SPR
[6] = molecular target: T1, FcgRIIb; assay: SPR
[7] = molecular target: T1, FcgRIIb; assay: SPR
[8] = molecular target: T2, FcgRIa; assay: SPR
[9] = molecular target: T4, FcgRIIaH (human, UniProt P12318); assay: SPR
T4 chain: T3 chain with R134H

[10] = molecular target: T3, FcgRIIaR; assay: SPR
[11] = molecular target: T1, FcgRIIb; assay: SPR
[12] = molecular target: T3, FcgRIIaR; assay: SPR
[13] = molecular target: T2, FcgRIa; assay: SPR
[14] = molecular target: T1, FcgRIIb; assay: SPR
[15] = molecular target: human FcRn (human, UniProt P55899); assay: SPR, pH 6.0, 25C
[16] = molecular target: T3, FcgRIIaR; assay: SPR
[17] = molecular target: T2, FcgRIa; assay: SPR

human FcRn, sequence (P55899 24-297, chain 1 of 2): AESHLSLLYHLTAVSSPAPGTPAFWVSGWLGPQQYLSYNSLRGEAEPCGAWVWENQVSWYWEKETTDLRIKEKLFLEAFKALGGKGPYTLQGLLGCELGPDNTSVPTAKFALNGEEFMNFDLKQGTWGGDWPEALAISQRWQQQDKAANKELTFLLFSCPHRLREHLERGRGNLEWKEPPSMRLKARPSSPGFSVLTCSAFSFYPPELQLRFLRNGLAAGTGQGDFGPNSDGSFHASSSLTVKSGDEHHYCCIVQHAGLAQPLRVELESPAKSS
human FcRn, sequence (chain, as listed by the source, chain 2 of 2): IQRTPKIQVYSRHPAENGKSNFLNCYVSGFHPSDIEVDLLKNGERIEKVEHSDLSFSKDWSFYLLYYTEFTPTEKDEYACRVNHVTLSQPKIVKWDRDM

B1: IL6R-BP478/IL6R-L (antibody)
chain 1: QVQLQESGPGLVKPSETLSLTCAVSGHSISHDHAWSWVRQPPGEGLEWIGFISYSGITNYNPSLQGRVTISRDNSKNTLYLQMNSLRAEDTAVYYCARSLARTTAMDYWGEGTLVTVSSASTKGPSVFPLAPCSRSTSESTAALGCLVKDYFPEPVTVSWNSGALTSGVHTFPAVLQSSGLYSLSSVVTVPSSSLGTKTYTCNVDHKPSNTKVDKRVESKYGPPCPPCPAPDLLGDDSVFLFPPKPKDTLMISRTPEVTCVVVDVSDEDGEVKFNWYVDGVEVHNAKTKPREEQDNSTYRVVSVLTVLHQDWLNGKEYKCKVSNKALPRPIEKTISKAKGQPREPQVYTLPPSRDELTKNQVSLTCLVKGFYPSDIAVEWESNGQPENNYKTTPPVLDSDGSFFLYSKLTVDKSRWQQGNVFSCSVMHEALHNHYTQESLSLSP
chain 2: not shown
[1]
  Kd: 19 nM
[2]
  Kd: 7.7 nM
[3]
  Kd: 540 nM

B2: IL6R-BP471/IL6R-L (antibody)
chain 1: QVQLQESGPGLVKPSETLSLTCAVSGHSISHDHAWSWVRQPPGEGLEWIGFISYSGITNYNPSLQGRVTISRDNSKNTLYLQMNSLRAEDTAVYYCARSLARTTAMDYWGEGTLVTVSSASTKGPSVFPLAPSSKSTSGGTAALGCLVKDYFPEPVTVSWNSGALTSGVHTFPAVLQSSGLYSLSSVVTVPSSSLGTQTYICNVNHKPSNTKVDKKVEPKSCDKTHTCPPCPAPDLLGDDSVFLFPPKPKDTLMISRTPEVTCVVVDVSDEDGEVKFNWYVDGVEVHNAKTKPREEQDNSTYRVVSVLTVLHQDWLNGKEYKCKVSNKALSRPIEKTISKAKGQPREPQVYTLPPSRDELTKNQVSLTCLVKGFYPSDIAVEWESNGQPENNYKTTPPVLDSDGSFFLYSKLTVDKSRWQQGNVFSCSVMHEALHNHYTQESLSLSP
chain 2: not shown
[1]
  Kd: 35 nM
[2]
  Kd: 7.3 nM
[3]
  Kd: 800 nM

B3: IL6R-BP300/IL6R-L (antibody)
chain 1: B2 chain 1 with V264I, D270E, D298Y, S331P, R332A
chain 2: not shown
[4]
  Kd: 9.6 nM
[5]
  Kd: 690 nM
[6]
  Kd: 58 nM

B4: IL6R-BP237/IL6R-L (antibody)
chain 1: B2 chain 1 with L236Y, S269Q, K328A, S331P, R332K
chain 2: not shown
[7]
  Kd: 100 nM

B5: IL6R-AP009/IL6R-BP259/IL6R-L (antibody)
chain 1: B2 chain 1 with S331P, D358K, H437R, E441K
chain 2: B2 chain 1 with S126D, S331P
chain 3: not shown
[8]
  Kd: 3.5 nM
[9]
  Kd: 6.6 µM
[10]
  Kd: 190 nM
[11]
  Kd: 3.9 nM

B6: IL6R-AP002/IL6R-BP256/IL6R-L (antibody)
chain 1: B2 chain 1 with D298Y, S331P, D358K, H437R, E441K
chain 2: B2 chain 1 with S126D, D298Y, S331P
chain 3: not shown
[8]
  Kd: 3.6 nM
[9]
  Kd: 4.2 µM
[10]
  Kd: 140 nM
[11]
  Kd: 4.1 nM

B7: IL6R-BP339/IL6R-L (antibody)
chain 1: B2 chain 1 with V266M, D270E, D298Y, S331P, R332A
chain 2: not shown
[4]
  Kd: 4.6 nM
[5]
  Kd: 1400 nM
[6]
  Kd: 130 nM

B8: IL6R-AP009/IL6R-BP260/IL6R-L (antibody)
chain 1: B2 chain 1 with S331P, D358K, H437R, E441K
chain 2: B2 chain 1 with S126E, S331P
chain 3: not shown
[8]
  Kd: 1.7 nM
[9]
  Kd: 5.4 µM
[10]
  Kd: 140 nM
[11]
  Kd: 4.2 nM

B9: IL6R-BP230/IL6R-L (antibody)
chain 1: B2 chain 1 with S331P
chain 2: not shown
[12]
  Kd: 490 nM
[13]
  Kd: 10 nM
[14]
  Kd: 18 nM

B10: Fv4-P587 (antibody)
chain 1: B2 chain 1 with D239G, V266I, S269A, D270E, D298Y, S331P, R332A, E441K
chain 2: DIQMTQSPSSLSASVGDSVTITCQASTDISSHLNWYQQKPGKAPELLIYYGSHLLSGVPSRFSGSGSGTDFTFTISSLEAEDAATYYCGQGNRLPYTFGQGTKVEIERTVAAPSVFIFPPSDEQLKSGTASVVCLLNNFYPREAKVQWKVDNALQSGNSQESVTEQDSKDSTYSLSSTLTLSKADYEKHKVYACEVTHQGLSSPVTKSFNRGEC
[15]
  Kd: 1500 nM

B11: IL6R-AP002/IL6R-BP257/IL6R-L (antibody)
chain 1: B2 chain 1 with D298Y, S331P, D358K, H437R, E441K
chain 2: B2 chain 1 with S126E, D298Y, S331P
chain 3: not shown
[8]
  Kd: 1.9 nM
[9]
  Kd: 4.9 µM
[10]
  Kd: 130 nM
[11]
  Kd: 4.7 nM

B12: IL6R-BP333/IL6R-L (antibody)
chain 1: B2 chain 1 with V266F, D270E, D298Y, S331P, R332A
chain 2: not shown
[4]
  Kd: 9.1 nM
[5]
  Kd: 1500 nM
[6]
  Kd: 120 nM

B13: IL6R-BP223/IL6R-L (antibody)
chain 1: B2 chain 1 with D235E, L236Y, D298Y, K328A, S331P
chain 2: not shown
[16]
  Kd: 600 nM

B14: IL6R-BP338/IL6R-L (antibody)
chain 1: B2 chain 1 with V266L, D270E, D298Y, S331P, R332A
chain 2: not shown
[4]
  Kd: 15 nM
[5]
  Kd: 2200 nM
[6]
  Kd: 150 nM

B15: IL6R-BP228/IL6R-L (antibody)
chain 1: B2 chain 1 with D235E, L236Y, S269Q, D298Y, K328D, S331P
chain 2: not shown
[7]
  Kd: 40 nM

B16: Fv4-IgG1 (antibody)
chain 1: not shown
chain 2: B10 chain 2
[15]
  Kd: 1400 nM

B17: IL6R-BP239/IL6R-L (antibody)
chain 1: B2 chain 1 with L236Y, S269Q, K328A, S331P
chain 2: not shown
[7]
  Kd: 60 nM

B18: IL6R-BP267/IL6R-L (antibody)
chain 1: B2 chain 1 with D270E, D298Y, S331P, R332A
chain 2: not shown
[4]
  Kd: 4 nM

B19: IL6R-BP246/IL6R-L (antibody)
chain 1: B2 chain 1 with S269Q, K328A, S331P
chain 2: not shown
[17]
  Kd: 8 nM

B20: IL6R-BP243/IL6R-L (antibody)
chain 1: B2 chain 1 with L236Y, D298Y, S331P
chain 2: not shown
[17]
  Kd: 3 nM

B21: Fv4-P587-LS (antibody)
chain 1: B2 chain 1 with D239G, V266I, S269A, D270E, D298Y, S331P, R332A, M430L, N436S, E441K
chain 2: B10 chain 2
[15]
  Kd: 120 nM
